A short description of the series: label from the status in PepcDB records.
As for “MPELSVILAGFGDALAPINLLFILFGVALGQFVGAVPGIGPVMATAIAIPFTFGMDPLTGIAFLVGVNKGGLVGGAIPAVLLNTPGTPDAAATALDGYPLAKQGKPLKATKMALFSSITGDTFSDIVLITVSAPMAILALRMGPVEVLGLMLLAFAVIAGLMGQSLVKGVVAIALGLMAAMVGTDPEHGSPRLIFGNYELYDGLPLASVAIGMLAISELLKRLSETRGTVRPAITLPRNQPRADRSVSWAEYWGCRFTMLRGAVIGTILGALPGIGSTAAAFMSYASARQASKEPESFGKGSLHGIAASESANSSVMGANMIPMLTLGIPGSVSAALIISAFMIHGIQPGPFLFSQQGQLVYGLFGAMIIANLINLWVGQLGLRFWVRVVSAPEPFIFASALLMCFVGVALASGGLFGIGVMLVFALLAYVMSAFGISVVVFIIAFFLGPRLEISLSQTLALLNGQPQKLLDYPFALVLMALALVTAVALARRRDTESETR”, the protein production entry was “failed”.
As for “MPETAWLSDIETLTYLHATVSTHRHQVRVPETPMHLDAILADQVLTGGLEPRLGQAHLRTLTIMGFPSQTWPGLLDDLNRLAFDYRWVTRAICLDKTDAAKVLGRIRRQWFAKRKSIAAMLKEIMTNEASALMDSDAANKAVDADMALQELGSDLVGAAYVTATVTIWNDDPRIADERLRLVEKVIQGRDFTCMVERVNAVEAWLGSLPGHVYANVRQPPVSTLNLAHMMPFSAVWAGPERDEHFDAPPLFLAKTEGSTPFRFSLHVGDVGHTLVVGPTGAGKSVLLALMALQFRRYARSQIFAFDFGGSIRAAALAMRGDWHDLGGSLAEDASEPVALQPLAGIDAEEERAWAAEWVAAILAREKVEITPDVKEHVWSALNNLASAPKSERTLTGLSVLLQSQALKQALKPYCVGGPWGRLLDAETERVGSADVLAFETEGLIGTGAAAAVLAYLFHRIEHRLDGRPTLLIVDEGWLALDDEGFASQLREWLKTLRKKNASVIFATQSLADIDGSAIAPAIIESCPTRLFLPNERALEPQIATIYERFGLNDRQIEILSRATPKRDYYCQSRRGNRLFELGLGEVALAFTAASSKGDQILIARLMAEHGPTGFAKAWLEARGVAWATDLIITPQKEKLPLEHHHHHH”, the entry is “not failed”; as for “MPETSSMLESVVAYLQQAEPSSVYAVLFLSAYFENVIPPIPGDVPIALAGYLLTFSHITFVAALFWSTIGSVAGFMTVFLLSRFLGLKLYAVGECEARHKFAQSIHKLFPPSEMEVVRQKFSGHGYLAVVVNRFLFGSRAVICIVAGMLHLKIPLVLAASFVSSLLWNILLLSTGYLLGSNWDKIGQYAVLYTAPFTILFTGFIVWKVVAYLKKRKQQADGA”, “failed”; as for “MPFPPEVYVLLVAALPVVELRGAIPLGVALGLSPWESFLWALLGNLLVVPLALGLLPWAVGLATRMPLFARAWRALEVRVRLKGEAQVQRLGALGLFLFVAVPLPGTGAWSGAVLAVVLGVRRRYAFPALALGVVAAGLLVLLLTGGTVYGLNYLR”, “failed”.
As for “MPGDLPMPTTMFTADELAVIRRAYAHQVMATAATTNPRIEAAFATVPREKFLGAPPWQIANLGGGNRPLPSSDLVLAYQDVLFALQPDNGVNNGSPSLHARLLAELDIQIGDRIAHIGAGTGYYSAILAELVGTSGHVYAVEMDPDLAAHAQAALAERANVSVINADGSQWPQQEVDAIYVNFAVARPAEPWIERLRPGGRLVLPLGVPRQDRPPKGGRHASHGAALRIEHGEGGFAARWIGTAYFVCANGGLTIDDNEIEALTAAFRRGGIEFVKSLLWKTEPRIGRCWHIGGQWALCYDDV”, the entry is “failed”.
As for “MPGEPGISTRPFSHCERGTTTRCGEGDAHVTVVISHLLVPATVSTVVTSSSFDRLQALLQRPAVASISPALREALARAWQELPPAQTDNVPWALLGDTLDALALLAADEATLIAALLFDLPALRGAVTDLPWQPAERRVAVEGLLDGLDAADQVWALHAGREAGRNSEGLRRLLLSIIHDLRVVPILLARQLSRMRVADRLSKEQRHALAQLTRDIHAPLANRLGIWQVKWELEDLAFRHLEPDTYRRIAREVDETRVARERYLEAVKRTLSAALAQQGLRADVSGRPKHIYSIWRKMQKKRLSFDQLYDIRAVRVMVDDVAACYAALGAVHSLWAPVPSEFDDYIARPKANDYRSLHTAVVGPEGRTIEIQIRTHEMHAQAELGVAAHWKYKEGGKGGEKAFDRKILWMRQLLEQVQEGEHGELAGALDAELIEDRVYALTPKGEVIDLPQGATPLDFAYHVHTMVGHRCRGARVNDRIVPLTYRLRSGDRVEIMTAKEADPRRDWLLASNGFLASGRSRDKVRAWFHKLDRARNVQAGKDLLDRELKRLGLQHADLSVATRKFHADTIDDLYIQVALGDTGPNQVSRALLEAERAASQPAVPAPPRPTARREGLGKSKFTVEGVGNLLVQLARCCQPVAGEPIAGYLTRGRGITVHRTDCAALARLAAAHPQRVLPVEWGKAGTGYEVDVQVRAVDRRWLLKDITNLIAQEDAHVLEINSDNVRDTGRAQLRLRLKVSDYDQLSGLLGKLDALPGVSEVRRLG”, the entry is “failed”; as for “MPGFEVLYQAAALCLTYPDDDFRARLPLLREAAPQLRGFTDHAAATGQGELQAHYVEVFDFRNRHSLYLSWWTDGDTRNRGMSLVRFKELYRAHGLEFTGEELPDFLPAVLEFVSRTGDMGMLTEHRDALDQLRARLTAFGTPYACVLDAVCATLPPAPTGARR”, “failed”; as for “MPGHVPPDLAVIEVTERRTRRSPAGYRPRMSEVVQVGAWGLLAGSALLLGAAIGFGVRVSQKVIATVMAFGAGVLISAVSYELVGEAYEQAGLAPAAIGTVIGAAAYTLGNLWLARRGARHRKRSGHHTAQAQPSEAQQGGSGLALAFGALLDGVPESAVIGVSLLDGGTVSTVTVAAVFISNVPEGLSSSAGMKRAGRGTTYVFGVWGAIAATSTLAAVLGYTVVGAFSPAVIAAVTAVAAGAILAMIADTMIPEAFEDAHLAIGLVTVSGFLVSFALSHV”, “failed”.
As to “MPGLPEVAPGDDLAKLIAAVEPGLVDGDVLLVTSKIVSKAEGRIVRADDREAAIDAETVRVVARRGALRIVENRQGLVMAAAGVDASNTPSGTVLLLPEDPDASARAIRDGLRDTLGVDVGVVVTDTFGRPWRTGLTDVAIGAAGVRVLDDLRGGTDAYGNPLSATVVATADELAAAGDLVKGKAAGLPVAVVRGLPHVIAGDDEAGARAMVRGGRDDMFRLGTSEAVREAVTQRRTVRAFTDEPVDPGAVRRAVAAAVTAPAPHHTTPWRFVLLESAESRTRLLDAMRDAWIADLRGDRKTEESIAKRVRRGDVLRNAPYLVVPCMVMDGSHSYGDARRDAAEREMFVVATGAGVQNFLVALAGERLGSAWVSSTMFCRDVVRRALGLPESWEPMGAVAVGHAAEEPRDRPARDAGAFIEVRLEHHHHHH”, the protein production result was “not failed”.
Then “MPGRKRKLAAKTAELAPEAGEGSESTSLVGSADASASTAAGVAHTEQQEMPSGGLHESFLESIPPAASFLEELAWVESLASPSYVAYLCQMRRFDDVVAQRRLTTLQRWRQDPAYRQHVSQPIALFFLEQLCSAEFREALRHPAVAALYERQVDLYRRCYGNLLNTGESRVLR”, with “not failed”; and “MPGSALLSLQQELRRGFEALKAAKDTFDGGHAECQELVSSLGNLAPQLKALKQVQISETPLSGFPCLQQRLHYKLSLAVDALLAKLAEKMAALQKVWDAFAQQVFTVVQLYEKNTDALDISVCVSRSAVCPSVSDMLEWLQDADRYYRLQLMQSRLLLQTLTPTDLTSMETAPNRWRSVRSARQEERIADALCQVSIFLETE”, with “failed”.
For the sequence “MPGSRDILADLVAFDTVSRESNLALIDYVRDYLAGFGVDSELFFDADGRKANLYATIGPSDRGGVCLSGHTDVVPADGQAWSVPPFRLSERDGRLYGRGTADMKGYLACVLAAVPAFLAAPLRLPVHLAFSYDEEVGCLGVRSLLAALERRPHKPLLCIIGEPTELKPVLGHKGKLAMRCEVHGAACHSAYAPQGVNAIEYAARLIGRLGEIGARLAVPERHDRRFDPPYSTVQTGLIQGGRALNIVPAECRFDFEVRALPADDPRQVAEELRDYAESELLPRMRAVERSTDIRFTPLSAYPGLLTADDSQAAELIGLLSGSTDFSTVAFGTEGGLFHQAGIPAVICGPGSMDQGHKPDEFVSLAQLEACDALLARLAAW”, the protein production result was “failed”.
In the case of “MPGWHAGGKPACRVPLLTKTGRFKRPVFSSSLSATPRFVAALRSTLLYEGAQHMLKLFVRNLPPQTTEAGLKELFTGYGKVFELQLSRDMFTGKARGTASVSMEGHEARKAIEALDGSDYEGKTIYVALDKGPRSGGRGRR”, the protein production entry is recorded as “failed”.
As for “MPGYQKTKDVGHFLSVTGTVIRTSLVKVLEFERDYMCNKCKHVFVIKADFEQYYTFCRPSSCPSLESCDSSKFTCLSGLSSSPTRCRDYQEIKIQEQVQRLSVGSIPRSMKVILEDDLVDSCKSGDDLTIYGIVMQRWKPFQQDVRCEVEIVLKANYIQVNNEQSSGIIMDEEVQKEFEDFWEYYKSDPFAGRNVILASLCPQVFGMYLVKLAVAMVLAGGIQRTDATGTRVRGESHLLLVGDPGTGKSQFLKYAAKITPRSVLTTGIGSTSAGIVLNCTVSPGSLVCKLNTRTTILAATNPKGQYDPQESVSVNIALGSPLLSRFDLILVLLDTKNEDWDRIISSFILENKGYPSKSEKLWSMEKMKTYFCLIRNLQPTLSDVGNQVLLRYYQMQRQSDCRNAARTTIRLLESLIRLAEAHARLMFRDTVTLEDAITVVSVMESSMEVHC”, the entry is “failed”.
As for “MPIDQEKLAKLQKLSANNKVGGTRRKLNKKAGSSAGANKDDTKLQSQLAKLHAVTIDNVAEANFFKDDGKVMHFNKVGVQVAAQHNTSVFYGLPQEKNLQDLFPGIISQLGPEAIQALSQLAAQMEKHEAKAPADAEKKDEAIPELVEGQTFDADVE”, the entry is “failed”; as for “MPIFSFLLFVFISSFTPGPNNFLAMTYANQHGLKRSINFCFGVAFGFFILTSLCSFFNIVLINIIPIIEFPLKILGVAYMLYLAFKIITSKGGAGHNEKNNKNLFTVGIFLQFINPKGILFGLTVVSTFILPYYNSYSSFLLFSLFLGIVGLLSTFSWSLFGSMFQKLLLKHNQLFNIIMAVLLVFSAVSIVIH”, “failed”.
On to “MPIIIDKDLPARKVLQEENIFVMTKERAETQDIRALKIAILNLMPTKQETEAQLLRLIGNTPLQLDVHLLHMESHLSRNVAQEHLTSFYKTFRDIENEKFDGLIITGAPVETLSFEEVDYWEELKRIMEYSKTNVTSTLHICWGAQAGLYHHYGVQKYPLKEKMFGVFEHEVREQHVKLLQGFDELFFAPHSRHTEVRESDIREVKELTLLANSEEAGVHLVIGQEGRQVFALGHSEYSCDTLKQEYERDRDKGLNIDVPKNYFKHDNPNEKPLVRWRSHGNLLFSNWLNYYVYQETPYVL”, for which the protein production entry was “not failed”.
With “MPIIKSSRVNIGRFTIGGSIPIVIISIFDHDAKSLTEKFETKKLSDKNLYEIRFDLFDKVNIDEELEIIRALDEMDIDYIFTYRGHDPEKIYETAITKMVPAVDMDLSLLNKVNRRSPDTRIMVSYHTDSSKDMIEKLDEMLKANADIVKVACNYKDEKNFFKDLIEIAQRKEISGKPVLFIPMGKSFLRVISAYYVSDMVYAKYDKETAMGQPDPDYYNKAFSLFNYIG”, the protein production result was “failed”.
Then “MPIKARETDMATRFKGLSAFPITPADEAGRVDIEAFSALIARLDAAEVDSVGILGSTGIYMYLTREERRRAIEAAATILRGRRTLMAGIGALRTDEAVALAKDAEAAGADALLLAPVSYTPLTQEEAYHHFAAVAGATALPLAIYNNPTTTRFTFSDELLVRLAYIPNIRAIKMPLPADADYAGELARLRPKLSDDFAIGYSGDWGCTDATLAGGDTWYSVVAGLLPVPALQLMRAAQAGNAEEAKRLDATFQPLWALFKEFGSIRVIYAAANILSLTVSEPPRPILPLTSAERQRVEEALEALSALETAP”, with “not failed”.

Values taken from a protein production outcome set (Wang et al. 2014).
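Note: failed if final PepcDB status was selected cloned or expressed and not failed if soluble or beyond.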
